In the supplement of paper PMC5998384:

What was measured:
HeLa Kyoto [1] = experiment: solubility in G1/S (NP-40 vs SDS abundance) (log2 ratio); higher = more soluble; conditions: cell cycle stage: G1/S
HeLa Kyoto [2] = experiment: melting temperature (median over replicates), in situ; higher = more thermally stable
HeLa Kyoto [3] = experiment: solubility change mitosis vs G1/S (difference of NP-40 vs SDS log2 ratios) (log2 ratio difference); higher = more soluble in mitosis
HeLa Kyoto [4] = experiment: thermal stability score vs G1/S (z-score of summed log2 fold changes over temperatures); higher = more thermally stable than in G1/S
[5] = cell cycle stage: early G1 (4.5 h after nocodazole release)
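For melting temperature (median over replicates), in situ in this document: HeLa Kyoto cells synchronized by double thymidine or nocodazole block, proteins quantified by TMT10plex mass spectrometry, three independent biological replicates.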
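For solubility change mitosis vs G1/S (difference of NP-40 vs SDS log2 ratios) in this document: synchronized HeLa Kyoto cells (double thymidine block for G1/S, nocodazole release for mitosis), protein amounts in NP-40 versus SDS lysates quantified by mass spectrometry, three biological replicates.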
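For solubility in G1/S (NP-40 vs SDS abundance) in this document: HeLa Kyoto cells arrested at G1/S by double thymidine block, proteins quantified by TMT10plex mass spectrometry in mild NP-40 versus SDS extracts, three biological replicates.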
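For thermal stability score vs G1/S (z-score of summed log2 fold changes over temperatures) in this document: synchronized HeLa Kyoto cells, proteins quantified by TMT10plex mass spectrometry, three biological replicates, mitosis taken 0.5 h after nocodazole release, G1/S directly after double thymidine block.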

Sequence	solubility in G1/S (log2) (HeLa Kyoto [1])	melting temperature (HeLa Kyoto [2]; cell cycle stage: G1/S)	melting temperature (HeLa Kyoto [2]; cell cycle stage: mitosis)	solubility change mitosis (log2) (HeLa Kyoto [3])	thermal stability score (HeLa Kyoto [4]; [5])	thermal stability score (HeLa Kyoto [4]; cell cycle stage: mitosis)
MPSPRPVLLRGARAALLLLLPPRLLARPSLLLRRSLSAASCPPISLPAAASRSSMDGAGAEEVLAPLRLAVRQQGDLVRKLKEDKAPQVDVDKAVAELKARKRVLEAKELALQPKDDIVDRAKMEDTLKRRFFYDQAFAIYGGVSGLYDFGPVGCALKNNIIQTWRQHFIQEEQILEIDCTMLTPEPVLKTSGHVDKFADFMVKDVKNGECFRADHLLKAHLQKLMSDKKCSVEKKSEMESVLAQLDNYGQQELADLFVNYNVKSPITGNDLSPPVSFNLMFKTFIGPGGNMPGYLRPETAQGIFLNFKRLLEFNQGKLPFAAAQIGNSFRNEISPRSGLIRVREFTMAEIEHFVDPSEKDHPKFQNVADLHLYLYSAKAQVSGQSARKMRLGDAVEQGVINNTVLGYFIGRIYLYLTKVGISPDKLRFRQHMENEMAHYACDCWDAESKTSYGWIEIVGCADRSCYDLSCHARATKVPLVAEKPLKEPKTVNVVQFEPSKGAIGKAYKKDAKLVMEYLAICDECYITEMEMLLNEKGEFTIETEGKTFQLTKDMINVKRFQKTLYVEEVVPNVIEPSFGLGRIMYTVFEHTFHVREGDEQRTFFSFPAVVAPFKCSVLPLSQNQEFMPFVKELSEALTRHGVSHKVDDSSGSIGRRYARTDEIGVAFGVTIDFDTVNKTPHTATLRDRDSMRQIRAEISELPSIVQDLANGNITWADVEARYPLFEGQETGKKETIEE [GARS]	0.0194	59.4 °C	59.5 °C	-0.136	-2.91	-2.03
MPSTDLLMLKAFEPYLEILEVYSTKAKNYVNGHCTKYEPWQLIAWSVVWTLLIVWGYEFVFQPESLWSRFKKKCFKLTRKMPIIGRKIQDKLNKTKDDISKNMSFLKVDKEYVKALPSQGLSSSAVLEKLKEYSSMDAFWQEGRASGTVYSGEEKLTELLVKAYGDFAWSNPLHPDIFPGLRKIEAEIVRIACSLFNGGPDSCGCVTSGGTESILMACKAYRDLAFEKGIKTPEIVAPQSAHAAFNKAASYFGMKIVRVPLTKMMEVDVRAMRRAISRNTAMLVCSTPQFPHGVIDPVPEVAKLAVKYKIPLHVDACLGGFLIVFMEKAGYPLEHPFDFRVKGVTSISADTHKYGYAPKGSSLVLYSDKKYRNYQFFVDTDWQGGIYASPTIAGSRPGGISAACWAALMHFGENGYVEATKQIIKTARFLKSELENIKGIFVFGNPQLSVIALGSRDFDIYRLSNLMTAKGWNLNQLQFPPSIHFCITLLHARKRVAIQFLKDIRESVTQIMKNPKAKTTGMGAIYGMAQTTVDRNMVAELSSVFLDSLYSTDTVTQGSQMNGSPKPH [SGPL1]	-0.0885	53.3 °C	54.3 °C	-0.101	-0.294	0.467
MPVAVGPYGQSQPSCFDRVKMGFVMGCAVGMAAGALFGTFSCLRIGMRGRELMGGIGKTMMQSGGTFGTFMAIGMGIRC [ROMO1]	-0.104	54.5 °C	54.9 °C	0.0021	-0.746	-1.2
MPVFHTRTIESILEPVAQQISHLVIMHEEGEVDGKAIPDLTAPVAAVQAAVSNLVRVGKETVQTTEDQILKRDMPPAFIKVENACTKLVQAAQMLQSDPYSVPARDYLIDGSRGILSGTSDLLLTFDEAEVRKIIRVCKGILEYLTVAEVVETMEDLVTYTKNLGPGMTKMAKMIDERQQELTHQEHRVMLVNSMNTVKELLPVLISAMKIFVTTKNSKNQGIEEALKNRNFTVEKMSAEINEIIRVLQLTSWDEDAWASKDTEAMKRALASIDSKLNQAKGWLRDPSASPGDAGEQAIRQILDEAGKVGELCAGKERREILGTCKMLGQMTDQVADLRARGQGSSPVAMQKAQQVSQGLDVLTAKVENAARKLEAMTNSKQSIAKKIDAAQNWLADPNGGPEGEEQIRGALAEARKIAELCDDPKERDDILRSLGEISALTSKLADLRRQGKGDSPEARALAKQVATALQNLQTKTNRAVANSRPAKAAVHLEGKIEQAQRWIDNPTVDDRGVGQAAIRGLVAEGHRLANVMMGPYRQDLLAKCDRVDQLTAQLADLAARGEGESPQARALASQLQDSLKDLKARMQEAMTQEVSDVFSDTTTPIKLLAVAATAPPDAPNREEVFDERAANFENHSGKLGATAEKAAAVGTANKSTVEGIQASVKTARELTPQVVSAARILLRNPGNQAAYEHFETMKNQWIDNVEKMTGLVDEAIDTKSLLDASEEAIKKDLDKCKVAMANIQPQMLVAGATSIARRANRILLVAKREVENSEDPKFREAVKAASDELSKTISPMVMDAKAVAGNISDPGLQKSFLDSGYRILGAVAKVREAFQPQEPDFPPPPPDLEQLRLTDELAPPKPPLPEGEVPPPRPPPPEEKDEEFPEQKAGEVINQPMMMAARQLHDEARKWSSKPGIPAAEVGIGVVAEADAADAAGFPVPPDMEDDYEPELLLMPSNQPVNQPILAAAQSLHREATKWSSKGNDIIAAAKRMALLMAEMSRLVRGGSGTKRALIQCAKDIAKASDEVTRLAKEVAKQCTDKRIRTNLLQVCERIPTISTQLKILSTVKATMLGRTNISDEESEQATEMLVHNAQNLMQSVKETVREAEAASIKIRTDAGFTLRWVRKTPWYQ [VCL]	0.182	56.4 °C	55.4 °C	-0.0931	-1.64	-1.78
MPVWGGGNKCGACGRTVYHAEEVQCDGRSFHRCCFLCMVCRKNLDSTTVAIHDEEIYCKSCYGKKYGPKGYGYGQGAGTLNMDRGERLGIKPESVQPHRPTTNPNTSKFAQKYGGAEKCSRCGDSVYAAEKIIGAGKPWHKNCFRCAKCGKSLESTTLTEKEGEIYCKGCYAKNFGPKGFGYGQGAGALVHAQ [CSRP2]	-0.179	59.4 °C	54.6 °C	-0.0558	1.39	-3.46
MPYQYPALTPEQKKELSDIAHRIVAPGKGILAADESTGSIAKRLQSIGTENTEENRRFYRQLLLTADDRVNPCIGGVILFHETLYQKADDGRPFPQVIKSKGGVVGIKVDKGVVPLAGTNGETTTQGLDGLSERCAQYKKDGADFAKWRCVLKIGEHTPSALAIMENANVLARYASICQQNGIVPIVEPEILPDGDHDLKRCQYVTEKVLAAVYKALSDHHIYLEGTLLKPNMVTPGHACTQKFSHEEIAMATVTALRRTVPPAVTGITFLSGGQSEEEASINLNAINKCPLLKPWALTFSYGRALQASALKAWGGKKENLKAAQEEYVKRALANSLACQGKYTPSGQAGAAASESLFVSNHAY [ALDOA]	0.345	58.2 °C	58.5 °C	-0.0218	-1.95	-2.35
MQAARMAASLGRQLLRLGGGSSRLTALLGQPRPGPARRPYAGGAAQLALDKSDSHPSDALTRKKPAKAESKSFAVGMFKGQLTTDQVFPYPSVLNEEQTQFLKELVEPVSRFFEEVNDPAKNDALEMVEETTWQGLKELGAFGLQVPSELGGVGLCNTQYARLVEIVGMHDLGVGITLGAHQSIGFKGILLFGTKAQKEKYLPKLASGETVAAFCLTEPSSGSDAASIRTSAVPSPCGKYYTLNGSKLWISNGGLADIFTVFAKTPVTDPATGAVKEKITAFVVERGFGGITHGPPEKKMGIKASNTAEVFFDGVRVPSENVLGEVGSGFKVAMHILNNGRFGMAAALAGTMRGIIAKAVDHATNRTQFGEKIHNFGLIQEKLARMVMLQYVTESMAYMVSANMDQGATDFQIEAAISKIFGSEAAWKVTDECIQIMGGMGFMKEPGVERVLRDLRIFRIFEGTNDILRLFVALQGCMDKGKELSGLGSALKNPFGNAGLLLGEAGKQLRRRAGLGSGLSLSGLVHPELSRSGELAVRALEQFATVVEAKLIKHKKGIVNEQFLLQRLADGAIDLYAMVVVLSRASRSLSEGHPTAQHEKMLCDTWCIEAAARIREGMAALQSDPWQQELYRNFKSISKALVERGGVVTSNPLGF [ACADVL]	0.117	54.9 °C	55 °C	-0.118	0.172	-2.03
MQAERGARGGRGRRPGRGRPGGDRHSERPGAAAAVARGGGGGGGGDGGGRRGRGRGRGFRGARGGRGGGGAPRGSRREPGGWGAGASAPVEDDSDAETYGEENDEQGNYSKRKIVSNWDRYQDIEKEVNNESGESQRGTDFSVLLSSAGDSFSQFRFAEEKEWDSEASCPKQNSAFYVDSELLVRALQELPLCLRLNVAAELVQGTVPLEVPQVKPKRTDDGKGLGMQLKGPLGPGGRGPIFELKSVAAGCPVLLGKDNPSPGPSRDSQKPTSPLQSAGDHLEEELDLLLNLDAPIKEGDNILPDQTSQDLKSKEDGEVVQEEEVCAKPSVTEEKNMEPEQPSTSKNVTEEELEDWLDSMIS [AVEN]	0.312	52.9 °C	52.6 °C	0.0958	-0.264	-2.4
MQAGKPILYSYFRSSCSWRVRIALALKGIDYKTVPINLIKDRGQQFSKDFQALNPMKQVPTLKIDGITIHQSLAIIEYLEEMRPTPRLLPQDPKKRASVRMISDLIAGGIQPLQNLSVLKQVGEEMQLTWAQNAITCGFNALEQILQSTAGIYCVGDEVTMADLCLVPQVANAERFKVDLTPYPTISSINKRLLVLEAFQVSHPCRQPDTPTELRA [GSTZ1]	0.447	53.5 °C	52.9 °C	0.0886	-2.37	-2.09
MQAHELFRYFRMPELVDFRQYVRTLPTNTLMGFGAFAALTTFWYATRPKPLKPPCDLSMQSVEVAGSGGARRSALLDSDEPLVYFYDDVTTLYEGFQRGIQVSNNGPCLGSRKPDQPYEWLSYKQVAELSECIGSALIQKGFKTAPDQFIGIFAQNRPEWVIIEQGCFAYSMVIVPLYDTLGNEAITYIVNKAELSLVFVDKPEKAKLLLEGVENKLIPGLKIIVVMDAYGSELVERGQRCGVEVTSMKAMEDLGRANRRKPKPPAPEDLAVICFTSGTTGNPKGAMVTHRNIVSDCSAFVKATENTVNPCPDDTLISFLPLAHMFERVVECVMLCHGAKIGFFQGDIRLLMDDLKVLQPTVFPVVPRLLNRMFDRIFGQANTTLKRWLLDFASKRKEAELRSGIIRNNSLWDRLIFHKVQSSLGGRVRLMVTGAAPVSATVLTFLRAALGCQFYEGYGQTECTAGCCLTMPGDWTAGHVGAPMPCNLIKLVDVEEMNYMAAEGEGEVCVKGPNVFQGYLKDPAKTAEALDKDGWLHTGDIGKWLPNGTLKIIDRKKHIFKLAQGEYIAPEKIENIYMRSEPVAQVFVHGESLQAFLIAIVVPDVETLCSWAQKRGFEGSFEELCRNKDVKKAILEDMVRLGKDSGLKPFEQVKGITLHPELFSIDNGLLTPTMKAKRPELRNYFRSQIDDLYSTIKV [ACSL1]	0.0525	51.6 °C	52.1 °C	-0.213	-0.625	-1.37
MQALRHVVCALSGGVDSAVAALLLRRRGYQVTGVFMKNWDSLDEHGVCTADKDCEDAYRVCQILDIPFHQVSYVKEYWNDVFSDFLNEYEKGRTPNPDIVCNKHIKFSCFFHYAVDNLGADAIATGHYARTSLEDEEVFEQKHVKKPEGLFRNRFEVRNAVKLLQAADSFKDQTFFLSQVSQDALRRTIFPLGGLTKEFVKKIAAENRLHHVLQKKESMGMCFIGKRNFEHFLLQYLQPRPGHFISIEDNKVLGTHKGWFLYTLGQRANIGGLREPWYVVEKDSVKGDVFVAPRTDHPALYRDLLRTSRVHWIAEEPPAALVRDKMMECHFRFRHQMALVPCVLTLNQDGTVWVTAVQAVRALATGQFAVFYKGDECLGSGKILRLGPSAYTLQKGQRRAGMATESPSDSPEDGPGLSPLL [TRMU]	-0.242	50.7 °C	51.1 °C	-0.134	0.5	0.388
MQPQSVLHSGYFHPLLRAWQTATTTLNASNLIYPIFVTDVPDDIQPITSLPGVARYGVKRLEEMLRPLVEEGLRCVLIFGVPSRVPKDERGSAADSEESPAIEAIHLLRKTFPNLLVACDVCLCPYTSHGHCGLLSENGAFRAEESRQRLAEVALAYAKAGCQVVAPSDMMDGRVEAIKEALMAHGLGNRVSVMSYSAKFASCFYGPFRDAAKSSPAFGDRRCYQLPPGARGLALRAVDRDVREGADMLMVKPGMPYLDIVREVKDKHPDLPLAVYHVSGEFAMLWHGAQAGAFDLKAAVLEAMTAFRRAGADIIITYYTPQLLQWLKEE [ALAD]	0.106	57 °C	55.2 °C	-0.212	-2.61	-2.88
